# B1: 130D67 human anti-H3L monoclonal antibody (antibody, V domains shown)
# VH: EVQLVESGGGLVQPGRSLRLSCAASGFTFDDYAIHWVRQAPGKGLEWVSGISWNGRSIGYADSVKGRFTISRDNAKNSLYLQMNSLRAEDTALYYCAKDIGFYGSGSLDYWGQGTLVTVSS
# VL: not shown
# Molecular target: T1, H3 protein ectodomain from vaccinia virus strain Lister with C-terminal 6-HIS tag, expressed from pET21a(+) (vaccinia virus strain Lister, UniProt P20497 1-269)
# T1 chain: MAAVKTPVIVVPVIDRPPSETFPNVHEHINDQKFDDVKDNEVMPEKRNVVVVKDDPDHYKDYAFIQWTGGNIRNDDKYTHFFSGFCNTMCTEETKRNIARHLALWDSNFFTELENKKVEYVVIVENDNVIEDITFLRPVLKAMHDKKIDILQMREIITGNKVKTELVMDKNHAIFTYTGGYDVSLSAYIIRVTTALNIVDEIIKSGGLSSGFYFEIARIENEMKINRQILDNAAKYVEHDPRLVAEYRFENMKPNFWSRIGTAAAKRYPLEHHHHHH
# Experiment: Western blot on E. coli lysates (FIG. 12A)
binder,measurement,value
B1,binding result,binds

# Source: patent US20140186370A1 (Kyowa Kirin, published 2014)
